B1: CD34, component of PNAd from human tonsil (ligand, UniProt P28906 32-385, looked up)
chain: SLDNNGTATPELPTQGTFSNVSTNVSYQETTTPSTLGSTSLHPVSQHGNEATTNITETTVKFTSTSVITSVYGNTNSSVQSQTSVISTVFTTPANVSTPETTLKPSLSPGNVSDLSTTSTSLATSPTKPYTSSSPILSDIKAEIKCSGIREVKLTQGICLEQNKTSSCAEFKKDRGEGLARVLCGEEQADADAGAQVCSLLLAQSEVRPQCLLLVLANRTEISSKLQLMKKHQSDLKKLGILDFTEQDVASHQSYSQKTLIALVTSGALLAVLGITGYFLMNRRSWSPTGERLGEDPYYTENGGGQGYSSGPGTSPEAQGKASVNRGAQENGTGQATSRNGHSARQHVVADTEL
modifications: native glycoprotein carrying the MECA-79 epitope
B2: L-selectin/IgG chimera (entire extracellular domain of murine L-selectin fused to the Fc domain of human IgG1) (Fc fusion, UniProt P18337 39-332, looked up)
chain: WTYHYSEKPMNWENARKFCKQNYTDLVAIQNKREIEYLENTLPKSPYYYWIGIRKIGKMWTWVGTNKTLTKEAENWGAGEPNNKKSKEDCVEIYIKRERDSGKWNDDACHKRKAALCYTASCQPGSCNGRGECVETINNHTCICDAGYYGPQCQYVVQCEPLEAPELGTMDCIHPLGNFSFQSKCAFNCSEGRELLGTAETQCGASGNWSSPEPICQVVQCEPLEAPELGTMDCIHPLGNFSFQSKCAFNCSEGRELLGTAETQCGASGNWSSPEPICQETNRSFSKIKEGDYN
notes: extracellular domain; From supernatants of transfected 293 cells, protein-A purified; also called recombinant L-selectin/IgG chimera; not shown: Fc domain of human IgG1

Tests used:
[1] = biological target: T1, CD4/IgG chimera (entire extracellular domain of human CD4 fused to the Fc domain of human IgG1) (human, UniProt P01730 26-396); test: precipitation of PNAd with the IgG chimera (CD34 as a named component of PNAd)
T1 construct: extracellular domain; Control chimera; also called control CD4/IgG chimera; not shown: Fc domain of human IgG1

[2] = biological target: B1; test: precipitation of PNAd with the L-selectin/IgG chimera, elution with EDTA

binding result [1]	binding result [2]	Binder
no binding		B1
	binds	B2

— patent US20020025923A1 (University of California, published 2002)
